US20050064507

Legend:
[1] = test system: T1, peptide ALRRPSLRREADD (SEQ ID NO:26)
T1 sequence: XXPPGALRRPSLRREADD

[2] = test system: T2, phospholemman peptide EEGTFRSSIRRLSTRRR (SEQ ID NO:116)
T2 sequence: EEGTFRSSIRRLSTRRR

[3] = test system: T3, peptide LRRKHLGTLNFGGIR (SEQ ID NO:60)
T3 sequence: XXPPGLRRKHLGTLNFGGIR

[4] = test system: T4, ankyrin R peptide DLIEGRKGAQIVKRASLKRG (SEQ ID NO:152)
T4 sequence: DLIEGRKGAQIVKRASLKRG

[5] = test system: T5, peptide AVNSRRRAGQKKK (SEQ ID NO:48)
T5 sequence: XXPPGAVNSRRRAGQKKK

[6] = test system: T6, plectin peptide PLKEKKRERKTSSKSSVRKR (SEQ ID NO:125)
T6 sequence: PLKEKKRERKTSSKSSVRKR

[7] = test system: T7, peptide DGQKRKKSLRKKLD (SEQ ID NO:16)
T7 sequence: XXPPGDGQKRKKSLRKKLD

[8] = test system: T8, MAP3K14 peptide WKGKRRSKARKKRK (SEQ ID NO:100)
T8 sequence: WKGKRRSKARKKRK

[9] = test system: T9, peptide KKRKKKSSKSLAHA (SEQ ID NO:27)
T9 sequence: XXPPGKKRKKKSSKSLAHA

[10] = test system: T10, GABA A receptor beta 2 peptide ERHVAQKKSRLRRRASQLKI (SEQ ID NO:142)
T10 sequence: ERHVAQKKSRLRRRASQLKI

[11] = test system: T11, CREB peptide VTDSQKRREILSRRPSYPKI (SEQ ID NO:141)
T11 sequence: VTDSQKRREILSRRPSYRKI

[12] = test system: T12, M1 muscarinic receptor peptide RWDKRRWRKIPKRPGSVHRT (SEQ ID NO:155)
T12 sequence: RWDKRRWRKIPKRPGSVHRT

[13] = test system: T13, peptide PVNKRSKYTMMK (SEQ ID NO:59)
T13 sequence: XXPPGPVNKRSKYTMMK

[14] = test system: T14, fit1 peptide VQMTWSYPDEKNKRASVRRR (SEQ ID NO:158)
T14 sequence: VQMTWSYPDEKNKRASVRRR

[15] = test system: T15, MCM2 peptide VQRHRSMRKTFARYLSFRRD (SEQ ID NO:129)
T15 sequence: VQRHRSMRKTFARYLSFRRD

[16] = test system: T16, peptide AVRDMRQTVAVGVIK (SEQ ID NO:62)
T16 sequence: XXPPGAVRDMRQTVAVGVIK

[17] = test system: T17, pkc-zeta peptide GLPAPGEDKSIYRRGSRRWR (SEQ ID NO:167)
T17 sequence: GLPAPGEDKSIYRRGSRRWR

[18] = test system: T18, p164-RhoGEF peptide PRLIRRGSKKRPAR (SEQ ID NO:124)
T18 sequence: PRLIRRGSKKRPAR

[19] = test system: T19, peptide IDYYKKTTNGRLPVK (SEQ ID NO:73)
T19 sequence: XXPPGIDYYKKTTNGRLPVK

[20] = test system: T20, peptide DLLGKKVSTKTLSEDD (SEQ ID NO:51)
T20 sequence: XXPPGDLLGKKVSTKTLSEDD

[21] = test system: T21, peptide AYIERMNSIHRDLRA (SEQ ID NO:37)
T21 sequence: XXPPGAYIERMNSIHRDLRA

[22] = test system: T22, peptide GFAKKIGSGQKTWTF (SEQ ID NO:66)
T22 sequence: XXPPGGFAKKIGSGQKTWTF

[23] = test system: T23, peptide AQIVKRASLKRGKQ (SEQ ID NO:10)
T23 sequence: XXPPGAQIVKRASLKRGKQ

[24] = test system: T24, dag kinase zeta peptide KKKKRASFKRKSSKKG (SEQ ID NO:114)
T24 sequence: KKKKRASFKRKSSKKG

[25] = test system: T25, peptide QQKIRKYTMRRLLQE (SEQ ID NO:33)
T25 sequence: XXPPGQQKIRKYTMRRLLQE

[26] = test system: T26, peptide AGSFKRNSIKKIV (SEQ ID NO:19)
T26 sequence: XXPPGAGSFKRNSIKKIV

[27] = test system: T27, LIMK-2 peptide LRRRSLRRSNSISKSPGP (SEQ ID NO:121)
T27 sequence: LRRRSLRRSNSISKSPGP

[28] = test system: T28, calcium channel, voltage-dependent, L type, alpha peptide RDIRQSPKRGFLRSASLGRR (SEQ ID NO:147)
T28 sequence: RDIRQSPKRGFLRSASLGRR

[29] = test system: T29, HERG peptide TELEGGFSRQRKRKLSFRRR (SEQ ID NO:140)
T29 sequence: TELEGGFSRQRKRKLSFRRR

[30] = test system: T30, peptide KLAVGRHSFSRRSGV (SEQ ID NO:21)
T30 sequence: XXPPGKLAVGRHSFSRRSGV

[31] = test system: T31, MLK3 peptide HVRRRRGTFKRSKLRARD (SEQ ID NO:76)
T31 sequence: HVRRRRGTFKRSKLRARD

[32] = test system: T32, peptide NMEAKKLSKDRMKKY (SEQ ID NO:40)
T32 sequence: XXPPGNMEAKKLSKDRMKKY

[33] = test system: T33, peptide LTDPKEDPIYDEPEGLAPVPG (SEQ ID NO:72)
T33 sequence: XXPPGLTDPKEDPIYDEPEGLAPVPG

[34] = test system: T34, peptide VDNILKKSNKKLEEL (SEQ ID NO:61)
T34 sequence: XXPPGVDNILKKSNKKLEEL

[35] = test system: T35, NMDAR1 peptide RAITSTLASSFKRRR (SEQ ID NO:122)
T35 sequence: RAITSTLASSFKRRR

[36] = test system: T36, beta adducin peptide KKKFRTPSFLKKSKK (SEQ ID NO:135)
T36 sequence: KKKFRTPSFLKKSKK

[37] = test system: T37, NIK peptide WKGKRRSKARKKRK (SEQ ID NO:131)
T37 sequence: WKGKRRSKARKKRK

[38] = test system: T38, Urotensin-2 receptor peptide LYARLARAYRRSQRASFKRA (SEQ ID NO:159)
T38 sequence: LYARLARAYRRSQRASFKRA

[39] = test system: T39, peptide RVKLGTLRRPEGP (SEQ ID NO:58)
T39 sequence: XXPPGRVKLGTLRRPEGP

PKC-delta gave an in vitro phosphorylation (% of best substrate) [1] of 9, an in vitro phosphorylation, 1 uM peptide (% of best substrate) [2] of 75 and an in vitro phosphorylation, 10 uM peptide (% of best substrate) [2] of 41. For the same substance, the in vitro phosphorylation (% of best substrate) [3] was 1, the in vitro phosphorylation, 1 uM peptide (% of best substrate) [4] was 35 and the in vitro phosphorylation, 10 uM peptide (% of best substrate) [4] was 18. For the same substance, the in vitro phosphorylation (% of best substrate) [5] was 2, the in vitro phosphorylation, 1 uM peptide (% of best substrate) [6] was 46 and the in vitro phosphorylation, 10 uM peptide (% of best substrate) [6] was 36. It also gave an in vitro phosphorylation (% of best substrate) [7] of 17, an in vitro phosphorylation (% of best substrate) [8] of 22 and an in vitro phosphorylation (% of best substrate) [9] of 8. For the same substance, the in vitro phosphorylation, 1 uM peptide (% of best substrate) [10] was 30, the in vitro phosphorylation, 10 uM peptide (% of best substrate) [10] was 36 and the in vitro phosphorylation, 1 uM peptide (% of best substrate) [11] was 43. For the same substance, the in vitro phosphorylation, 10 uM peptide (% of best substrate) [11] was 21, the in vitro phosphorylation, 1 uM peptide (% of best substrate) [12] was 30 and the in vitro phosphorylation, 10 uM peptide (% of best substrate) [12] was 23. It also gave an in vitro phosphorylation (% of best substrate) [13] of 1, an in vitro phosphorylation, 1 uM peptide (% of best substrate) [14] of 18 and an in vitro phosphorylation, 10 uM peptide (% of best substrate) [14] of 33. For the same substance, the in vitro phosphorylation, 1 uM peptide (% of best substrate) [15] was 32, the in vitro phosphorylation, 10 uM peptide (% of best substrate) [15] was 14 and the in vitro phosphorylation (% of best substrate) [16] was 1. The in vitro phosphorylation, 1 uM peptide (% of best substrate) [17] was 13, the in vitro phosphorylation, 10 uM peptide (% of best substrate) [17] was 24 and the in vitro phosphorylation, 1 uM peptide (% of best substrate) [18] was 69. The in vitro phosphorylation, 10 uM peptide (% of best substrate) [18] was 43, the in vitro phosphorylation (% of best substrate) [19] was 0 and the in vitro phosphorylation (% of best substrate) [20] was 2. It also gave an in vitro phosphorylation (% of best substrate) [21] of 3, an in vitro phosphorylation (% of best substrate) [22] of 1 and an in vitro phosphorylation (% of best substrate) [23] of 32. The in vitro phosphorylation, 1 uM peptide (% of best substrate) [24] was 80, the in vitro phosphorylation, 10 uM peptide (% of best substrate) [24] was 100 and the in vitro phosphorylation (% of best substrate) [25] was > 5. The in vitro phosphorylation (% of best substrate) [26] was 14, the in vitro phosphorylation, 1 uM peptide (% of best substrate) [27] was 80 and the in vitro phosphorylation, 10 uM peptide (% of best substrate) [27] was 53. The in vitro phosphorylation, 1 uM peptide (% of best substrate) [28] was 27, the in vitro phosphorylation, 10 uM peptide (% of best substrate) [28] was 13 and the in vitro phosphorylation, 1 uM peptide (% of best substrate) [29] was 44. It also gave an in vitro phosphorylation, 10 uM peptide (% of best substrate) [29] of 49, an in vitro phosphorylation (% of best substrate) [30] of 12 and an in vitro phosphorylation (% of best substrate) [31] of 100. It also gave an in vitro phosphorylation (% of best substrate) [32] of 3, an in vitro phosphorylation (% of best substrate) [33] of 0 and an in vitro phosphorylation (% of best substrate) [34] of 1. It also gave an in vitro phosphorylation, 1 uM peptide (% of best substrate) [35] of 55, an in vitro phosphorylation, 10 uM peptide (% of best substrate) [35] of 24 and an in vitro phosphorylation, 1 uM peptide (% of best substrate) [36] of 40. The in vitro phosphorylation, 10 uM peptide (% of best substrate) [36] was 25, the in vitro phosphorylation, 1 uM peptide (% of best substrate) [37] was 38 and the in vitro phosphorylation, 10 uM peptide (% of best substrate) [37] was 29. The in vitro phosphorylation, 1 uM peptide (% of best substrate) [38] was 15, the in vitro phosphorylation, 10 uM peptide (% of best substrate) [38] was 12 and the in vitro phosphorylation (% of best substrate) [39] was 1.
